According to PMC7610691 (Nature structural & molecular biology, 2020):

T1: Smc4 (S. cerevisiae condensin subunit) (S. cerevisiae, UniProt Q12267 1-1418)
T1 sequence: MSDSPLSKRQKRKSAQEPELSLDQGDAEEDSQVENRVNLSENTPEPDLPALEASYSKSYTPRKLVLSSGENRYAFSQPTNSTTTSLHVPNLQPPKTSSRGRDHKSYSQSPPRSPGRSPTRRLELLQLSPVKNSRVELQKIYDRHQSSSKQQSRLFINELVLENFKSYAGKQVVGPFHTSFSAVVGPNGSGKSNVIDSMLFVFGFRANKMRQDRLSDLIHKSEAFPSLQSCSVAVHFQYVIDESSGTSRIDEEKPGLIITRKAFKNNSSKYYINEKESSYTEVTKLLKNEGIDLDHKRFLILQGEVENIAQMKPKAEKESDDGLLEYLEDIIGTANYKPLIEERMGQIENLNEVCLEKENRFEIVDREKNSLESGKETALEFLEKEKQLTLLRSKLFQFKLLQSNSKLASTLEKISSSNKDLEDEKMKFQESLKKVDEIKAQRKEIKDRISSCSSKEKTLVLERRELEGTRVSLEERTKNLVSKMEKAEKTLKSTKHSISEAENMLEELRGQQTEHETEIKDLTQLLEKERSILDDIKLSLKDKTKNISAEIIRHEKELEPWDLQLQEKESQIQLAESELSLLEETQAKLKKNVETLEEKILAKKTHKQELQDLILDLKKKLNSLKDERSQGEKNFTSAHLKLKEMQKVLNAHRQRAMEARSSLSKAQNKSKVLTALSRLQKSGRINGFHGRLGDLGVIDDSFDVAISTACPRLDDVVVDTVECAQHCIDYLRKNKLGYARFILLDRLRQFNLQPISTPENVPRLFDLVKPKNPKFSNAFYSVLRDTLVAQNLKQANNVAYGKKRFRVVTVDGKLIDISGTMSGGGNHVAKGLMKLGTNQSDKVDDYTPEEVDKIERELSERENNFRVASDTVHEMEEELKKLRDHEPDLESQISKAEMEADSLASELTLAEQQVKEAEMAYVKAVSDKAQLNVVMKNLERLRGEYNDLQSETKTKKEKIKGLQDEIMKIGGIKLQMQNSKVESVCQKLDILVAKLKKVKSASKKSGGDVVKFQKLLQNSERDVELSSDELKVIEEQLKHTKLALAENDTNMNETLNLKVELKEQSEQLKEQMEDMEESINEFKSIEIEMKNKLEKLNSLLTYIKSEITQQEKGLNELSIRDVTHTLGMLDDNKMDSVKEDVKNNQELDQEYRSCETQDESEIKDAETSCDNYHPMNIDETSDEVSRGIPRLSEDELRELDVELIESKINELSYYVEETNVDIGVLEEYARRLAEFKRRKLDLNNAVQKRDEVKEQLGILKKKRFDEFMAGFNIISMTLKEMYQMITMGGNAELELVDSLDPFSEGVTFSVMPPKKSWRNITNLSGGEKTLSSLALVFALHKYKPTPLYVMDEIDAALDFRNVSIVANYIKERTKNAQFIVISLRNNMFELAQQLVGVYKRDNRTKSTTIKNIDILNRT

B1: Ycs4 (S. cerevisiae condensin HEAT-repeat subunit) (natural protein)
chain: MSGFSLSEYLTKFQTTDRESYPRLQDPSRELNVIIDQLAVSPEQIDASPDSLEALIDLCHDFPHLTPKLQTQLSYLISSSLSNLSKDIKANLSSNVNFTEIGGLIPQWKRHLEEYGYLIQVLLTFLQDELHKVSSQSTNLNRSAKNSKNDSANVELFKRDCNQMENLLESITKLLEINLSKIFQTTPEKDLFIGLFTRPLFVLLEIEPVTKVSSLKMFIQRILAMCVKNHGQSSSIQSSLMTNLTYFLHLSVFNAELLKLLNDEYNYPQLTEDILKEISTRVFNAKDTTGPKAISNFLIKLSELSPGIMLRQMNLVITLLNNSSITLRCSVVEACGNIVAELAQDPQTMEHYKQQIAVLIELLEERFQDSNPYVRTKAIQGCSKICDLSSKFNKSKAKFTSLAVRSLQDRSSLVRRNSVKLLSKLLLKHPFKAIHGSQLRLSEWEEYLKGSESQLNSTLKKVESQETLNDTIERSLIEEEVEQDEGQCRTELEGSFNKSAELSRIENEVENINATNTSVLMKLKLMIVYYKDAISFIKEIHKSIELISNLLFSKNRNEVLESMDFLVLADAFDIELSEFGIKKMLHLVWMKGTNDEGTSISVHLIECYKQLFLTAPDSCNMQEKAAHIAKNLINLSIGASIADLASLEQLLGMMYEQKLIDQHVINILWAIYNSASKASMQKEQNVNNRDSEKGFSKEQIHGSIIILGMLSLADNEIALKGLESLLNIGLGAVGLKDLTLCRYSCLALERMVPKRSTIITKAINQELEDVAVKKLYAIIINYTKDNEYYPMCEQALSALFTISSKPDILATDLIREKTMMTFGKPEEEDSILSLEQSSRVVSLSQLLFIVGQVAIKTLVYLEKCEAEFKKRKIEAETRNGKVKNQGADVTNTTQDNGGDKELEMIGGTNEDDFTDAIQFVKENELLFGEKSILGKFCPIVEEIVSNSSRFSDPMLQRTATLCLEKLMCLSSKYCEKSLPLLITVMEKSPDPTIRSNAVLGLGDMAVCFNNLVDENTDYLYRRLHDENLMVQRTCLMTVTFLILAGQVKVKGQLGEMAKCLDNPDQGISDMCRLFFTELASKDNAIYNGFIDIFSNLSSDDLLGKESFKKIIKFLLTFIDKERHQKQLNEKLVGRLRKCETQKQWDDIAFVLNNLPYKNEDVTALLEQGFKVVSAKE

Key:
[1] = biological target: T1, Smc4 (S. cerevisiae condensin subunit); assay: cryo-EM structure
[2] = biological target: B1; assay: cross-linking

binding result [1]	binding result [2]	Binder
binds	binds	Smc2 (S. cerevisiae condensin subunit) (natural protein) MKVEELIIDGFKSYATRTVITDWDPQFNAITGLNGSGKSNILDAICFVLGIASMSTVRASSLQDLIYKRGQAGVTKASVTIVFDNTDKSNSPIGFTNSPQISVTRQVVLGGTSKYLINGHRAPQQSVLQLFQSVQLNINNPNFLIMQGKITKVLNMKPSEILSLIEEAAGTKMFEDRREKAERTMSKKETKLQENRTLLTEEIEPKLEKLRNEKRMFLEFQSTQTDLEKTERIVVSYEYYNIKHKHTSIRETLENGETRMKMLNEFVKKTSEEIDSLNEDVEEIKLQKEKELHKEGTISKLENKENGLLNEISRLKTSLSIKVENLNDTTEKSKALESEIASSSAKLIEKKSAYANTEKDYKMVQEQLSKQRDLYKRKEELVSTLTTGISSTGAADGGYNAQLAKAKTELNEVSLAIKKSSMKMELLKKELLTIEPKLKEATKDNELNVKHVKQCQETCDKLRARLVEYGFDPSRIKDLKQREDKLKSHYYQTCKNSEYLKRRVTNLEFNYTKPYPNFEASFVHGVVGQLFQIDNDNIRYATALQTCAGGRLFNVVVQDSQTATQLLERGRLRKRVTIIPLDKIYTRPISSQVLDLAKKIAPGKVELAINLIRFDESITKAMEFIFGNSLICEDPETAKKITFHPKIRARSITLQGDVYDPEGTLSGGSRNTSESLLVDIQKYNQIQKQIETIQADLNHVTEELQTQYATSQKTKTIQSDLNLSLHKLDLAKRNLDANPSSQIIARNEEILRDIGECENEIKTKQMSLKKCQEEVSTIEKDMKEYDSDKGSKLNELKKELKLLAKELEEQESESERKYDLFQNLELETEQLSSELDSNKTLLHNHLKSIESLKLENSDLEGKIRGVEDDLVTVQTELNEEKKRLMDIDDELNELETLIKKKQDEKKSSELELQKLVHDLNKYKSNTNNMEKIIEDLRQKHEFLEDFDLVRNIVKQNEGIDLDTYRERSKQLNEKFQELRKKVNPNIMNMIENVEKKEAALKTMIKTIEKDKMKIQETISKLNEYKRETLVKTWEKVTLDFGNIFADLLPNSFAKLVPCEGKDVTQGLEVKVKLGNIWKESLIELSGGQRSLIALSLIMALLQFRPAPMYILDEVDAALDLSHTQNIGHLIKTRFKGSQFIVVSLKEGMFANANRVFRTRFQDGTSVVSIM
binds	–	B1
